± gives the uncertainty stated by the source.

A short description of this data set: amyloid nucleation score (Sup35N fusion, yeast selection) (log enrichment); library NNK2; higher = more nucleation; inactive = no reads after selection. The essentials: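 Sup35N fusions to peptides of 20 random codons were expressed in psi-negative yeast, induced 24 hours with 100 μM copper sulfate, and grown 7 days at 30°C on medium lacking adenine and uracil. Input and output plasmid inserts were sequenced by Illumina. The nucleation score is the DiMSum log enrichment of output over input reads, centred on the mode score of non-aggregating sequences. Sequences with under 100 input reads were excluded.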
Consider SINYKALAS, for which the amyloid nucleation score result is “inactive”.

The substance SIRLYSCSMVLTSSSVNCYQ had an amyloid nucleation score of 1.86 ± 0.17.

Take SIRSFSFISESNQLLEHVRK: the amyloid nucleation score worked out at 0.119 ± 0.54.

For the substance SISLLMICCDL, the amyloid nucleation score was found to be 8.511 ± 0.04.

Take SITFFKNAFVAIHIAR: the amyloid nucleation score entry is “inactive”.

Turning to SIWINFLNLWYQCFISSILG, the amyloid nucleation score result was “inactive”.

As for SIYFKVIATTSVYRLMPTVW, the amyloid nucleation score was -0.291 ± 0.74.

SKCLSIPISCFTCVLLCYFF had an amyloid nucleation score of 0.936 ± 0.17.

On to SKCVWIKDQNFFQVDTNESI, for which the amyloid nucleation score was found to be 1.73 ± 0.34.

SKDMCRRCCIRNLRRMSDSN had an amyloid nucleation score of -0.443 ± 0.26.

Substance SKFFCVSSVRFRLCVWG came in with an amyloid nucleation score of -0.14 ± 1.

Consider SKFNFIYCAGDQLSYRYRLG, for which the amyloid nucleation score is -0.728 ± 1.

In turn, SKFVSKSEV displayed an amyloid nucleation score of -0.983 ± 1.1.

SKGSWIDVSYDLV returned an amyloid nucleation score of -0.132 ± 0.37.

Turning to SKHFIVTVLTAITSNVSFSM, the amyloid nucleation score worked out at 2.38 ± 0.066.

For the substance SKIVCDMFLGHEDLPCTRLF, the amyloid nucleation score came out at 0.057 ± 1.1.

The substance SKNVFKMGLDTSH had an amyloid nucleation score of -1.22 ± 0.32.

SKQTITFRSVQEDSWRRFGH returned an amyloid nucleation score of 5.49 ± 0.076.

In the case of SKVRLQSGYTKHERKNFHWL, the amyloid nucleation score is -0.001 ± 0.34.

As for SKVSKGLHST, the amyloid nucleation score entry was “inactive”.

Regarding SKWYVGRHFPPWPR, the amyloid nucleation score came to 0.769 ± 0.24.

Regarding SLAFNPISCAANLPFFHIQF, the amyloid nucleation score came out at 0.29 ± 0.77.

SLAFYTTYNNKILGNS gave an amyloid nucleation score of 3.08 ± 0.069.

The substance SLARSTRFLYWSGNELVFIS registered an amyloid nucleation score of 3.66 ± 0.082.

SLCPCLMIIS gave an amyloid nucleation score of -0.852 ± 0.38.

Substance SLEGKSWGCSTSNSLKGDKG yielded an amyloid nucleation score of -0.06 ± 1.1.

SLFDFAVFNMNYESNACISR displayed an amyloid nucleation score of 0.451 ± 0.27.

SLFRVKGAVLEVLVPRMLLY: the amyloid nucleation score was 0.51 ± 0.41.

Substance SLFVITYRPAYSSDFILNGG yielded an amyloid nucleation score of 0.763 ± 0.43.

Consider SLGIQRARNAMSNTPFALGS, for which the amyloid nucleation score came out at 0.596 ± 0.36.

As for SLHRFYYSHLYALRMRGNSR, the amyloid nucleation score is 6.16 ± 0.091.

As for SLKVHSWFGNIYSDFLLTSV, the amyloid nucleation score is -0.55 ± 0.79.

SLNYIFLNLCRYLSCGIYIH: the amyloid nucleation score result is “inactive”.

Take SLPIVEDITGYPLRSHWG: the amyloid nucleation score was 0.172 ± 0.27.

SLPPLMWGAMMRRRRRGSST: the amyloid nucleation score was determined as 5.717 ± 0.056.

As to SLRFGYNFKFLAMIKFPHIR, the amyloid nucleation score is -0.644 ± 0.78.

For SLRYLHFGVDHLS, the amyloid nucleation score came to 3.94 ± 0.055.

In turn, SLSDYFGEWISA had an amyloid nucleation score of -0.422 ± 1.1.

Regarding SLSFLKSGPLA, the amyloid nucleation score entry is “inactive”.

In the case of SLSRCALL, the amyloid nucleation score is -0.789 ± 0.39.

Substance SLSRGLC had an amyloid nucleation score of 0.404 ± 0.45.

Consider SLSWLWFLNSKSRMSTDISV, for which the amyloid nucleation score entry was “inactive”.

The substance SLVCM gave an amyloid nucleation score of -0.713 ± 0.29.

Turning to SLVLVDFAYSWMSGSAFWFF, the amyloid nucleation score is -1.09 ± 1.1.

In turn, SLVYKGLCILSTLFLYFDFL gave an amyloid nucleation score of -0.337 ± 1.

For the substance SLYCF, the amyloid nucleation score entry is “inactive”.

The substance SLYKHSTHWRLCSTMAIVKP had an amyloid nucleation score of 0.953 ± 0.51.

SLYLSWYDIFLMYGCWNVVR had an amyloid nucleation score of 0.638 ± 0.37.

In turn, SMDGSQDCTTKLNWSFHSVF had an amyloid nucleation score of 3.88 ± 0.066.

For the substance SMDRIQEGLHRQLVFDVSE, the amyloid nucleation score amounted to 0.624 ± 0.35.

In turn, SMEAFYRGFFKTPWSY came in with an amyloid nucleation score of -0.2 ± 0.29.

The substance SMIIQTQHI gave an amyloid nucleation score of 0.024 ± 0.55.

SMILVHKSNLQFLGKDDTQS: the amyloid nucleation score amounted to 6.539 ± 0.025.

SMISWATMVSRRDYLYMCV displayed an amyloid nucleation score of -0.216 ± 0.45.

Take SMPMGGERIWVIYCRFQVLS: the amyloid nucleation score was -0.585 ± 0.35.

In turn, SMRCLIMCATDCRNDMGRLW registered an amyloid nucleation score of 5.362 ± 0.039.

SMRTG: the amyloid nucleation score came to 0.448 ± 0.23.

SMRVYHSHLNWFH registered an amyloid nucleation score of 6.63 ± 0.063.

Take SMYVDVFLRFGSWLHSFT: the amyloid nucleation score is -0.127 ± 0.74.

SNCFHLVW came in with an amyloid nucleation score of -0.031 ± 1.

Substance SNCRQSPYNNQVI came in with an amyloid nucleation score of 0.155 ± 1.1.

Take SNESNFIVICVCMDCIRGGG: the amyloid nucleation score entry was “inactive”.

The substance SNFPWPMERPEFSDDSVFWA had an amyloid nucleation score of -0.313 ± 0.76.

On to SNFVTVSGTPPHIILMCKDW, for which the amyloid nucleation score is 4.71 ± 0.055.

Substance SNGCQTRADGLTECDICKPS gave an amyloid nucleation score of 0.33 ± 0.24.

In the case of SNGCRRALL, the amyloid nucleation score result was “inactive”.

As for SNGLGLQCGIRGKVFNELLS, the amyloid nucleation score was -0.674 ± 0.42.

SNIYLVPRFIWP showed an amyloid nucleation score of -0.338 ± 0.61.

SNLVKHRQV gave an amyloid nucleation score of 0.745 ± 0.46.

SNNHND: the amyloid nucleation score entry was “inactive”.

On to SNPSVNLCRWIDACNSDLIT, for which the amyloid nucleation score was found to be 0.165 ± 1.

Substance SNSVCACCKCWLGLSLPYQG registered an amyloid nucleation score of 7.781 ± 0.046.

The substance SNVDVFVTKMWRATQSCFRL displayed an amyloid nucleation score of 3.67 ± 0.12.

SNVFEVGPMGPSR registered an amyloid nucleation score of 0.056 ± 0.5.

SNWNTTPVSPS yielded an amyloid nucleation score of 0.514 ± 0.44.

With SNYHSGRVKGGDVGVYIS, the amyloid nucleation score worked out at 3.57 ± 0.051.

As to SPCFWMLPVKKPPACR, the amyloid nucleation score was 5.082 ± 0.039.

SPHASMTIVIF displayed an amyloid nucleation score of 1.04 ± 0.22.

In turn, SPHDVGNSIVIMGFRMWLN came in with an amyloid nucleation score of 0.082 ± 0.44.

On to SPIPFPYMYVYSMWCDTLTR, for which the amyloid nucleation score turned out to be 0.505 ± 0.3.

The substance SPKTDDTTVMGELYVWLTLG came in with an amyloid nucleation score of 8.338 ± 0.036.

As to SPKTYRRIIGIGQVAVRVCK, the amyloid nucleation score worked out at 0.673 ± 0.25.

Turning to SPLCVF, the amyloid nucleation score is -0.211 ± 0.38.

Substance SPLYLTLCMTLQVYGSR gave an amyloid nucleation score of 4.04 ± 0.073.

For SPMNDLY, the amyloid nucleation score was determined as 0.041 ± 0.49.

SPMTDLVRMRGRME returned an amyloid nucleation score of 0.051 ± 0.49.

As for SPNRQLVKFYFQTTYMVSRL, the amyloid nucleation score turned out to be 3.52 ± 0.071.

With SPRSAIFSLTTQVF, the amyloid nucleation score was found to be 3.34 ± 0.13.

For the substance SPYAFACAGCSGVKG, the amyloid nucleation score came out at 0.234 ± 0.26.

On to SPYLMSTDKIRLSP, for which the amyloid nucleation score came to 1.16 ± 0.44.

In turn, SQCFERV yielded an amyloid nucleation score of 0.637 ± 0.36.

SQGIVSDAANYMHILSAGYD yielded an amyloid nucleation score of 0.044 ± 0.55.

In the case of SQKNCCKVEGRLMASRVKPR, the amyloid nucleation score is 0.155 ± 1.1.

Consider SQLLDSLQNGRGCYSM, for which the amyloid nucleation score entry was “inactive”.

In turn, SQPHYGRASACRSSSSR registered an amyloid nucleation score of 0.831 ± 0.51.

Consider SRANMQSRCRLNNQSVYGKL, for which the amyloid nucleation score is -0.175 ± 0.45.

SRCLSSITVLTCNHMSVKAC gave an amyloid nucleation score of 0.224 ± 0.8.

As for SRDCVRDLSVMCSLWKWFPV, the amyloid nucleation score is -0.394 ± 1.1.

Consider SRDVAAYNRRRRFAVLGWGE, for which the amyloid nucleation score came out at 0.44 ± 0.38.

Substance SRFGGVSTHYLARSFVDVTM displayed an amyloid nucleation score of 0.039 ± 0.44.

SRGISKVTWP gave an amyloid nucleation score of 0.276 ± 0.28.

Turning to SRGSYIPSPLRHSFSVLWRF, the amyloid nucleation score is -0.785 ± 0.63.

Substance SRHRVLFFYKFVCLIWV had an amyloid nucleation score of -0.8 ± 0.74.

The substance SRIRDLVPHIRC displayed an amyloid nucleation score of -0.594 ± 1.1.

As for SRLISTHTAT, the amyloid nucleation score entry was “inactive”.

As to SRMLYVQIWREYVNSWKTSS, the amyloid nucleation score was -0.356 ± 0.38.

With SRNSLLRS, the amyloid nucleation score is -0.924 ± 0.45.

Turning to SRRVLYMVVPPLVF, the amyloid nucleation score is -1.36 ± 0.54.

For the substance SRSAWLRELDPPA, the amyloid nucleation score worked out at 0.839 ± 0.43.

On to SRSFKVRNL, for which the amyloid nucleation score entry was “inactive”.

For SRSILLKAGWI, the amyloid nucleation score entry is “inactive”.

Substance SRSSHLM yielded an amyloid nucleation score of 0.073 ± 0.37.

Substance SRSSTCGSRGLTGNRGGGIG returned an amyloid nucleation score of 0.299 ± 0.45.

SRVYRCGWLGS registered an amyloid nucleation score of 0.274 ± 0.65.

In turn, SRYFVVAGRSLNTCVNMCCV gave an amyloid nucleation score of 4.78 ± 0.069.

The substance SRYSSV gave an amyloid nucleation score of 0.172 ± 0.65.

SSADMQRY: the amyloid nucleation score is -0.383 ± 0.48.

In turn, SSASFSVHQYCYLLNPSF gave an amyloid nucleation score of 1.45 ± 0.28.

SSASLGVAV: the amyloid nucleation score was -0.517 ± 0.76.

Consider SSAYQMSEY, for which the amyloid nucleation score came out at 0.072 ± 1.1.

SSCPYYHGYNVRVMSCSHVI registered an amyloid nucleation score of 0.091 ± 0.4.

With SSCYSVLGMRL, the amyloid nucleation score result was “inactive”.

SSEIKRSWGYFLSLLWFYYR had an amyloid nucleation score of -0.696 ± 1.

In the case of SSFHWPIKSRDAGVAWSRGG, the amyloid nucleation score came to 2.07 ± 0.18.

With SSFRSLRSRHPPGTLPPDTP, the amyloid nucleation score worked out at 0.919 ± 0.3.

In the case of SSKLLYM, the amyloid nucleation score was -0.059 ± 0.55.

Turning to SSLFMTIWDSFSPI, the amyloid nucleation score was -0.186 ± 0.45.

The substance SSLVVMMGILMEVTVAGLGV yielded an amyloid nucleation score of 0.241 ± 0.37.

SSLWSGPKVIQDY: the amyloid nucleation score was -0.122 ± 0.28.

With SSNSANVILASYEDYRRVNP, the amyloid nucleation score was -0.526 ± 0.79.

Take SSQCYYGPLFWSYEFRSYCV: the amyloid nucleation score was -0.162 ± 0.46.

In turn, SSQFR returned an amyloid nucleation score of 0.705 ± 0.44.

Regarding SSRSTCNINSYELSVSVQLR, the amyloid nucleation score turned out to be 5.35 ± 0.075.

As for SSTVCCHALVCSVSNFGFTV, the amyloid nucleation score amounted to 9.783 ± 0.038.

In turn, SSVRR showed an amyloid nucleation score of 0.723 ± 0.22.

Regarding SSWPSMST, the amyloid nucleation score was -0.458 ± 0.28.

SSWSSNQNSTYTLRSYTALH displayed an amyloid nucleation score of 5.2 ± 0.069.

The substance SSWYHFDFGYCECGSNDGFV gave an amyloid nucleation score of 0.102 ± 0.79.

Turning to SSYLMTYC, the amyloid nucleation score is -0.104 ± 0.35.

Take SSYRSEGSAYGMPYYPVSAS: the amyloid nucleation score was 1.06 ± 0.38.

On to STAWKCEVYRRV, for which the amyloid nucleation score worked out at 1.14 ± 0.33.

On to STDIWVWFYRNFLMTANRN, for which the amyloid nucleation score entry was “inactive”.

The record behind these values is the supplement of paper PMC12042874.
